The values below come from PMC12775136.

The target of this test is UPF1-Hel (human).

On to “full-length SLBP (SLBPfl) (from UniProt Q14493 1-270) (natural protein)”, for which the extent of linear RNA substrate unwound by UPF1-Hel (fluorescence-based nucleic acid unwinding assay) with SLBPfl at equimolar amount to 3-fold molar excess; further decrease at 3-fold excess was 66%.
